This is an account of results in publication doi:10.1101/2025.08.21.671500.

In series [1] the target is T1, FOXA1 forkhead domain (UniProt P55317 169-260).
T1 sequence: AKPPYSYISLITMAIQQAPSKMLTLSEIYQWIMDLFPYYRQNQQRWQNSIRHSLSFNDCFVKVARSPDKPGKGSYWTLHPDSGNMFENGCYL
Put plainly: BLI.

The target in series [2] is T2, FOXA2 forkhead domain (UniProt Q9Y261 159-252).
T2 sequence: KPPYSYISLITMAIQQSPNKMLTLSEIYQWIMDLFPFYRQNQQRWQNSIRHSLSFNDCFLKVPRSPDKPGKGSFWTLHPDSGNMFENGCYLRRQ
Kind of series: BLI.

The target of series [3] is T3, FOXA1 forkhead domain;FOXA2 forkhead domain, Twin-Strep-tagged (human?;human?, UniProt P55317;Q9Y261 169-260;159-252, |).
T3 sequence 1: T1 sequence
T3 sequence 2: T2 sequence
Put plainly: EMSA.

The target of series [4] is T2, FOXA2 forkhead domain. Put plainly: EMSA. Background: In EMSA bound probe runs differently from free probe, usually more slowly.
Series [5] addresses T1, FOXA1 forkhead domain. Kind of series: EMSA.

B1: BLI 40-mer (dsDNA)
DNA 1: GTGTCTCCTGCTCTGTCAGCAGGGCACTGTACTTGCTGAT
DNA 2: ATCAGCAAGTACAGTGCCCTGCTGACAGAGCAGGAGACAC
In the case of B1, the binding result in series [1] and in series [2] was “binds” each time.

B2: PAL (extended palindromic motif) (dsDNA)
DNA 1: CCGCCGTAAGTAAATATTTACTTAGCCGCC
DNA 2: GGCGGCTAAGTAAATATTTACTTACGGCGG
As for B2, the binding result in series [3], in series [4] and in series [5] was “binds” in each case.

B3: 2C (two canonical motifs separated by 3 nt) (dsDNA)
DNA 1: CCGCCGTATTTACTGAGTAAATAGCCGCC
DNA 2: GGCGGCTATTTACTCAGTAAATACGGCGG
Regarding B3, the binding result in series [3], in series [4] and in series [5] was “binds” in each case.

B4: C (canonical FOXA motif) (dsDNA)
DNA 1: CCGCCGCCGTGTTTACTTTGCCGCCGCC
DNA 2: GGCGGCGGCAAAGTAAACACGGCGGCGG
Regarding B4, the binding result in series [4] was “binds”.
